B1: Twister Ribozyme (parent)
chain: AACACUGCCAAUGCCGGUCCCAAGCCCGGAUAAAAGUGGAGGGGGCGG

Variants of: B1
Assay: self-cleavage, relative activity (ratio to wild type); higher = more cleavage; co-transcriptional

Variant | self-cleavage
AACACUGCCAAUGUCGGUCCAAAGCCCGGAUAAAAGUGGAGGGGGCGG [C14U C21A] | 0.108
AACACUGCCAAUGUCGGUCCCAAGCCCGGAUAACAGUGGAGGGGGCGG [C14U A34C] | 0.461
AACACUGCCAAUGUCGGUCCCAAGCCCGGAUAAUAGUGGAGGGGGCGG [C14U A34U] | 0.951
AACACUGCCAAUGGCGGUCCCAAGCCCGGAUAAAAGUGGAGGGGGCGU [C14G G48U] | 0.128
AACACUGCCAAUGUCGGUCCCAAGCCCGGAUAAAAGUCGAGGGGGCGG [C14U G38C] | 0.909
AACACUGCCAAUGUCGGUCCCAAGCCCGGAUAAAAGUAGAGGGGGCGG [C14U G38A] | 1.02
AACACUGCCAAUGUCGGUCGCAAGCCCGGAUAAAAGUGGAGGGGGCGG [C14U C20G] | 0.2
AACACUGCCAAUGGCGGUCCCAAGACCGGAUAAAAGUGGAGGGGGCGG [C14G C25A] | 0.0733
AACACUGCCAAUGUCGGUCCCAAGCCCGGAUAAAAGUGGAGGCGGCGG [C14U G43C] | 0.227
AACACUGCCAAUGUCGGUCCCAAGCCCGGAUAAAAGUGGAGGUGGCGG [C14U G43U] | 0.526
AACACUGCCAAUGUCGGUCCCAAGCCCGGAUAAAAGUGGAGGAGGCGG [C14U G43A] | 0.369
AACACUGCCAAUGGCGGUCCCAAGCCCGGAUAAAAUUGGAGGGGGCGG [C14G G36U] | 0.0782
AACACUGCCAAUGGCGGUCCCAAGCCCGGAUAAAAAUGGAGGGGGCGG [C14G G36A] | 0.0659
AACACUGCCAAUGGCGGUCCCAAGCCCGGAUAAAACUGGAGGGGGCGG [C14G G36C] | 0.065
AACACUGCCAAUGUCGGUCCCAAGCUCGGAUAAAAGUGGAGGGGGCGG [C14U C26U] | 0.403
AACACUGCCAAUGGCGGUCCCAAGCCCGGAUAAAAGUGGAGGGGGCAG [C14G G47A] | 0.0923
AACACUGCCAAUGUCGGUCCCAAGCCGGGAUAAAAGUGGAGGGGGCGG [C14U C27G] | 0.108
AACACUGCCAAUGGCGGUCCCAAGCCCGGAUAAUAGUGGAGGGGGCGG [C14G A34U] | 0.159
AACACUGCCAAUGGCGGUCCCAAGCCCGGAUAACAGUGGAGGGGGCGG [C14G A34C] | 0.0831
AACACUGCCAAUGACGGUCCCAAGCCCGGAGAAAAGUGGAGGGGGCGG [C14A U31G] | 0.942
AACACUGCCAAUGACGGUCCCAAGCCCGGACAAAAGUGGAGGGGGCGG [C14A U31C] | 0.913
AACACUGCCAAUGGCGGUCCCAAGCCCGGAUAAAAGUGGAGGGCGCGG [C14G G44C] | 0.129
AACACUGCCAAUGGCGGUCCCAAGCCCGGAUAAAAGUGGAGGGGGGGG [C14G C46G] | 0.101
AACACUGCCAAUGGCGGUCCCAAGCCCGGAUAAAAGUGGAGGGGGUGG [C14G C46U] | 0.175
AACACUGCCAAUGGCGGUCCCACGCCCGGAUAAAAGUGGAGGGGGCGG [C14G A23C] | 0.0556
AACACUGCCAAUGGCGGUCCCAUGCCCGGAUAAAAGUGGAGGGGGCGG [C14G A23U] | 0.0448
AACACUGCCAAUGGCGGUCCCAAGCUCGGAUAAAAGUGGAGGGGGCGG [C14G C26U] | 0.0493

Variant | self-cleavage
AACACUGCCAAUGUCGGUGCCAAGCCCGGAUAAAAGUGGAGGGGGCGG [C14U C19G] | 0.518
AACACUGCCAAUGUCGGUCCCAAGCCCGGAUAAAAGUGGAGGGGGCGC [C14U G48C] | 1.26
AACACUGCCAAUGUCGGUCCCAAGCCCGGAUAAAAGUGGAGGGGGCGA [C14U G48A] | 1.1
AACACUGCCAAUGUCGGUCCCAAGCCCGGAUCAAAGUGGAGGGGGCGG [C14U A32C] | 1.03
AACACUGCCAAUGUCGGUCCCAAGCCCGGAUGAAAGUGGAGGGGGCGG [C14U A32G] | 1.07
AACACUGCCAAUGGCGGUCCCAAGCCCGGAUAAAAGUGGAUGGGGCGG [C14G G41U] | 0.111
AACACUGCCAAUGGCGGUCCCAAGCCCGGAUAAAAGUGGACGGGGCGG [C14G G41C] | 0.0824
AACACUGCCAAUGACGGGCCCAAGCCCGGAUAAAAGUGGAGGGGGCGG [C14A U18G] | 0.0811
AACACUGCCAAUGACGGACCCAAGCCCGGAUAAAAGUGGAGGGGGCGG [C14A U18A] | 0.485
AACACUGCCAAUGACGGCCCCAAGCCCGGAUAAAAGUGGAGGGGGCGG [C14A U18C] | 0.371
AACACUGCCAAUGGCGGUCCCAACCCCGGAUAAAAGUGGAGGGGGCGG [C14G G24C] | 0.0845
AACACUGCCAAUGGCGGUCCCAAGCCCGGAUAAAAGUGGAGUGGGCGG [C14G G42U] | 0.0931
AACACUGCCAAUGGCGGUCCCAAGCCCGGAUAAAAGUGGAGAGGGCGG [C14G G42A] | 0.0786
AACACUGCCAAUGUCGGUCCCAAGCCCGGAUAAAAGUGGAGGGGGUGG [C14U C46U] | 1.01
AACACUGCCAAUGUCGGUCCCAAGCCCGGAUAAAAGUGGAGGGGGGGG [C14U C46G] | 1.04
AACACUGCCAAUGUCGGUCCCAAGCCCGGAUAAAAGUGGAGGGGGCAG [C14U G47A] | 0.947
AACACUGCCAAUGUCGGUCCCAAGCCCGAAUAAAAGUGGAGGGGGCGG [C14U G29A] | 1.06
AACACUGCCAAUGUCGGUCCCAAGCCCGUAUAAAAGUGGAGGGGGCGG [C14U G29U] | 1.09
AACACUGCCAAUGGCGGUCCCAAGCCCCGAUAAAAGUGGAGGGGGCGG [C14G G28C] | 0.106
AACACUGCCAAUGGCGGUCCCAAGCCCAGAUAAAAGUGGAGGGGGCGG [C14G G28A] | 0.162
AACACUGCCAAUGUCGGUCCCAAGCCCAGAUAAAAGUGGAGGGGGCGG [C14U G28A] | 1.09
AACACUGCCAAUGUCGGUCCCAAGCCCCGAUAAAAGUGGAGGGGGCGG [C14U G28C] | 1.01
AACACUGCCAAUGGCGGUCCCAAGCCCGUAUAAAAGUGGAGGGGGCGG [C14G G29U] | 0.192
AACACUGCCAAUGGCGGUCCCAAGCCCGCAUAAAAGUGGAGGGGGCGG [C14G G29C] | 0.228
AACACUGCCAAUGGCGGUCCCAAGCCCGGUUAAAAGUGGAGGGGGCGG [C14G A30U] | 0.146
AACACUGCCAAUGGCGGUCGCAAGCCCGGAUAAAAGUGGAGGGGGCGG [C14G C20G] | 0.111
AACACUGCCAAUGGCGGUCUCAAGCCCGGAUAAAAGUGGAGGGGGCGG [C14G C20U] | 0.25

From the RNAGym collection of RNA variant scans (doi:10.7554/elife.80360)
